From the supplement of paper PMC7125110
± gives the standard error. Fewer inactive variants are shown than the library holds.

B1: glmS ribozyme (parent)
chain: AUAAAAGCGCCAGAACUACAGAAAUGUAGUUGACGAGGAGGAGGUUUAUCGAAUUUUCGGCGGAUGCCUCCAAA

Assays:
Settings in all cases: with glucosamine-6-phosphate
glucosamine-6-phosphate [1] = variants of: B1; test: self-cleavage kobs at 40 uM GlcN6P; higher = faster cleavage; RNA array
In short: (§1)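 Sequenced MiSeq chips were the platform: E. coli RNA polymerase transcribed barcoded ribozyme variants on them in situ, and a hybridised Cy3 probe tracked these at 37 °C. After glucosamine-6-phosphate (40 μM to 10 mM) in HEPES/KCl/Mg(OAc)2 buffer was flowed in, tiles were imaged over ~14 h. Signals normalised to baseline and to non-cleaving reference variants were reduced to per-tile medians and fit to one- or two-exponential decays to obtain kobs. kcat and KM were derived through weighted Michaelis–Menten fits across concentrations.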

glucosamine-6-phosphate [2] = variants of: B1; test: self-cleavage kobs at 160 uM GlcN6P; higher = faster cleavage; RNA array
In short: as §1

glucosamine-6-phosphate [3] = variants of: B1; test: self-cleavage kobs at 640 uM GlcN6P; higher = faster cleavage; RNA array
In short: as §1

glucosamine-6-phosphate [4] = variants of: B1; test: self-cleavage kobs at 2500 uM GlcN6P; higher = faster cleavage; RNA array
In short: as §1

glucosamine-6-phosphate [5] = variants of: B1; test: self-cleavage kobs at 10000 uM GlcN6P; higher = faster cleavage; RNA array
In short: as §1

Variant	self-cleavage kobs at 40 uM GlcN6P (glucosamine-6-phosphate [1]) [s⁻¹]	self-cleavage kobs at 160 uM GlcN6P (glucosamine-6-phosphate [2]) [s⁻¹]	self-cleavage kobs at 640 uM GlcN6P (glucosamine-6-phosphate [3]) [s⁻¹]	self-cleavage kobs at 2500 uM GlcN6P (glucosamine-6-phosphate [4]) [s⁻¹]	self-cleavage kobs at 10000 uM GlcN6P (glucosamine-6-phosphate [5]) [s⁻¹]
U46G A48U C68U	< 1e-05	–	–	–	–
G43U A48G U65A G66U C70A	< 1e-05	–	–	–	–
A39U G43A C67G	0.000153 ± 4.5e-05	9.45e-05 ± 3.1e-05	0.000465 ± 0.00019	0.000131 ± 6.2e-05	0.00313 ± 0.00085
A12U G37C A53C U54A	< 1e-05	–	–	–	–
C8U C10G	< 1e-05	–	< 1e-05	–	< 1e-05
C11G G60U	< 1e-05	< 1e-05	< 1e-05	–	< 1e-05
A39C G40C U47A U56G	< 1e-05	–	–	–	–
G40U C50A G66U	< 1e-05	–	< 1e-05	< 1e-05	< 1e-05
G44A U56C G63A	< 1e-05	–	–	–	< 1e-05
G35U A53U C61G C68G	0.000579 ± 0.00022	–	–	–	0.000516 ± 0.0002
C8G A48U C71G	< 1e-05	–	–	–	< 1e-05
A36U C50G U69C	0.000561 ± 0.00011	–	–	–	0.000905 ± 0.00017
A6G G9C	< 1e-05	< 1e-05	–	–	< 1e-05
G43U G66C	< 1e-05	< 1e-05	–	< 1e-05	–
A12U G35U U49C	< 1e-05	–	–	< 1e-05	–
G7C U31C	< 1e-05	< 1e-05	–	–	–
A42G U69A	0.000758 ± 0.00012	0.000231 ± 0.00011	0.00094 ± 0.00029	0.000947 ± 0.0003	–
G38C A39C G40C C50A A53G U65C	< 1e-05	–	–	–	–
G43U C71G	< 1e-05	< 1e-05	< 1e-05	–	< 1e-05
A14U G41C C70G	0.000998 ± 0.00029	0.00172 ± 0.00056	0.00931 ± 0.0023	0.0459 ± 0.018	0.0658 ± 0.026
C50U A52U	< 1e-05	< 1e-05	< 1e-05	< 1e-05	< 1e-05
C8U G41A	< 1e-05	< 1e-05	< 1e-05	< 1e-05	< 1e-05
G32C A39C	< 1e-05	< 1e-05	–	–	–

Variant	self-cleavage kobs at 40 uM GlcN6P (glucosamine-6-phosphate [1]) [s⁻¹]	self-cleavage kobs at 160 uM GlcN6P (glucosamine-6-phosphate [2]) [s⁻¹]	self-cleavage kobs at 640 uM GlcN6P (glucosamine-6-phosphate [3]) [s⁻¹]	self-cleavage kobs at 2500 uM GlcN6P (glucosamine-6-phosphate [4]) [s⁻¹]	self-cleavage kobs at 10000 uM GlcN6P (glucosamine-6-phosphate [5]) [s⁻¹]
C8A A36G	< 1e-05	< 1e-05	< 1e-05	< 1e-05	< 1e-05
G9U A12U A33G G40U	< 1e-05	–	–	–	–
U31C C34G G37A A42U U47A A52U	< 1e-05	–	–	–	< 1e-05
G7C G62U	< 1e-05	–	–	< 1e-05	< 1e-05
C8A G29U U57A G62C C67U	< 1e-05	–	–	–	–
G9U A42U	< 1e-05	< 1e-05	< 1e-05	< 1e-05	–
C11G C58U G59U	< 1e-05	–	–	–	< 1e-05
C10U C16G G29U	< 1e-05	–	–	–	–
A12G C58U	< 1e-05	–	–	1.67e-05 ± 7.9e-06	6.35e-05 ± 8.1e-06
G37U G59A	< 1e-05	–	< 1e-05	–	–
U30G U45A C71U	0.000183 ± 4.7e-05	–	–	–	0.00282 ± 0.0011
U31G C71A	0.000103 ± 1.4e-05	0.000505 ± 0.00012	0.000376 ± 8.1e-05	0.000715 ± 0.00018	0.00392 ± 0.00068
C8U U54A	< 1e-05	< 1e-05	< 1e-05	< 1e-05	< 1e-05
G43A C67G C68G	5.46e-05 ± 1.7e-05	–	0.000155 ± 4.7e-05	6.83e-05 ± 1.7e-05	7.38e-05 ± 1.4e-05
C8A C58G	< 1e-05	< 1e-05	< 1e-05	–	–
G37U G41C	< 1e-05	< 1e-05	< 1e-05	< 1e-05	–
U55A A64U C68U	< 1e-05	–	–	–	–
A6U A39U G40A	< 1e-05	–	–	–	–
C10A C61U	< 1e-05	–	–	< 1e-05	–
A36C G44U U54G G66A C71A	< 1e-05	–	–	–	< 1e-05
A14G A53U U55G	0.000607 ± 0.00013	–	–	–	0.036 ± 0.013
G37U A42G	< 1e-05	–	< 1e-05	< 1e-05	–
A33G A39U G41C	< 1e-05	–	–	–	< 1e-05

Variant	self-cleavage kobs at 40 uM GlcN6P (glucosamine-6-phosphate [1]) [s⁻¹]	self-cleavage kobs at 160 uM GlcN6P (glucosamine-6-phosphate [2]) [s⁻¹]	self-cleavage kobs at 640 uM GlcN6P (glucosamine-6-phosphate [3]) [s⁻¹]	self-cleavage kobs at 2500 uM GlcN6P (glucosamine-6-phosphate [4]) [s⁻¹]	self-cleavage kobs at 10000 uM GlcN6P (glucosamine-6-phosphate [5]) [s⁻¹]
G62U G63A	< 1e-05	< 1e-05	< 1e-05	< 1e-05	< 1e-05
C11A A12C G32U C50G	0.000123 ± 3.9e-05	–	–	–	0.000269 ± 6.1e-05
G29C U45A	7.41e-05 ± 2.6e-05	–	0.000828 ± 0.00023	0.000499 ± 0.00024	0.00281 ± 0.00086
G29C U30C	< 1e-05	–	< 1e-05	–	–
G29U A48C G63U	< 1e-05	–	–	–	< 1e-05
G9U A36U	< 1e-05	–	< 1e-05	–	< 1e-05
G43U C61U C68U	< 1e-05	–	< 1e-05	–	< 1e-05
G37C U57A	< 1e-05	–	< 1e-05	–	< 1e-05
A36U G51A	< 1e-05	< 1e-05	–	–	< 1e-05
U54A C71A	0.000351 ± 6.3e-05	0.000583 ± 8.5e-05	0.000818 ± 0.00011	0.00847 ± 0.0023	0.0109 ± 0.0026
U31G U47C	2.84e-05 ± 1.3e-05	–	0.000197 ± 4.8e-05	0.000501 ± 0.00015	–
G13C C61A C71U	< 1e-05	–	–	–	–
G38A U46G	< 1e-05	< 1e-05	< 1e-05	< 1e-05	< 1e-05
G43U G59A	< 1e-05	–	–	< 1e-05	< 1e-05
G40A G41C A48C C68A C70U	< 1e-05	–	–	–	< 1e-05
G43U U49A G60A C68U	< 1e-05	–	–	–	< 1e-05
U46G G60U	< 1e-05	< 1e-05	–	–	< 1e-05
A33C C34G C71U	< 1e-05	–	–	< 1e-05	–
A6G G51C	< 1e-05	< 1e-05	< 1e-05	< 1e-05	–
U30G G32C A39G U45C A52U G63A	< 1e-05	–	< 1e-05	< 1e-05	< 1e-05
C8G A36U G60C	< 1e-05	–	–	–	< 1e-05
G60C U69G	< 1e-05	< 1e-05	–	–	< 1e-05
A36U G44C U47G	< 1e-05	–	–	–	< 1e-05

Variant	self-cleavage kobs at 40 uM GlcN6P (glucosamine-6-phosphate [1]) [s⁻¹]	self-cleavage kobs at 160 uM GlcN6P (glucosamine-6-phosphate [2]) [s⁻¹]	self-cleavage kobs at 640 uM GlcN6P (glucosamine-6-phosphate [3]) [s⁻¹]	self-cleavage kobs at 2500 uM GlcN6P (glucosamine-6-phosphate [4]) [s⁻¹]	self-cleavage kobs at 10000 uM GlcN6P (glucosamine-6-phosphate [5]) [s⁻¹]
G9A U45C	< 1e-05	< 1e-05	–	–	< 1e-05
G43C U46G	< 1e-05	< 1e-05	< 1e-05	< 1e-05	–
C34G G43C U47A U49C U55G	< 1e-05	–	–	–	< 1e-05
G43A C68U	0.00208 ± 0.00023	0.00432 ± 0.00092	0.0114 ± 0.0021	0.00869 ± 0.0023	0.041 ± 0.0092
C11A G51U A52G U57A G66C C70A	5.04e-05 ± 1.9e-05	–	–	–	5e-05 ± 1.4e-05
G44U A48G	< 1e-05	< 1e-05	< 1e-05	< 1e-05	< 1e-05
G7C U47C A64U	< 1e-05	–	–	–	< 1e-05
U30G A42U G43U A48U G59U	< 1e-05	–	–	–	–
U30A U49C	< 1e-05	< 1e-05	< 1e-05	< 1e-05	< 1e-05
G38U A64C	< 1e-05	< 1e-05	–	< 1e-05	< 1e-05
G32C U49C	< 1e-05	< 1e-05	–	–	–
C8U U30G A36G C68U	< 1e-05	< 1e-05	–	–	–
G38U U46A	< 1e-05	< 1e-05	–	< 1e-05	–
G32A C61G	< 1e-05	–	–	–	–
G9U C58A	< 1e-05	–	–	–	< 1e-05
A33U G59U G62A	< 1e-05	–	–	–	–
G13U G60U C68U	< 1e-05	–	–	–	–
G7U G59U	< 1e-05	< 1e-05	–	< 1e-05	< 1e-05
A48G U49C	< 1e-05	< 1e-05	< 1e-05	< 1e-05	< 1e-05
U46A G60C	< 1e-05	< 1e-05	< 1e-05	< 1e-05	< 1e-05
A6U A48G	< 1e-05	< 1e-05	–	< 1e-05	< 1e-05
G38C G44U	< 1e-05	< 1e-05	< 1e-05	< 1e-05	< 1e-05
